Assay [1] has as its target T1, human BCMA expressed on cells (human, UniProt Q02223 1-184).
T1 construct: whole, on cells; also called human BCMA HEK293; ARH77-hBCMA 10B5 BCMA expressing transfectant cells
T1 sequence (looked up): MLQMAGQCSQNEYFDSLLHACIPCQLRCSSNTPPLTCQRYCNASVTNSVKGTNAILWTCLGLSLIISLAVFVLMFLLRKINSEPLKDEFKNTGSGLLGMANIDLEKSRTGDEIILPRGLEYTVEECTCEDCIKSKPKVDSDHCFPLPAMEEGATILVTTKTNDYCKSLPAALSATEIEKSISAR
Description: FACS on ARH77-hBCMA 10B5 transfectant cells, antibody 5 µg/mL, PE anti-mouse IgG. The procedure: (§1) Cells were incubated for 20 mins at room temperature (RT) and then washed with FACS buffer (PBS+0.5% BSA+0.1% sodium azide) to remove unbound antibody. Cells were incubated with a secondary PE labelled anti-mouse IgG antibody for 15 minutes at RT and then washed with FACS buffer to remove unbound antibody. Cells were analysed by FACS to detect antibody bound to the cells.

The target of assay [2] is T2, recombinant human BCMA, in house material (human, UniProt Q02223 4-53, limits assumed).
T2 construct: also called Human in house BCMA; In house human BCMA
Put plainly: ProteOn SPR, antibody captured on Protein A, 25C. The procedure: The initial screen of the new chimeric variants from the second batch of hybridomas was carried out on the ProteOn XPR36 (Biorad). The method was as follows; Protein A was immobilised on a GLM chip (Biorad, Cat No: 176-5012) by primary amine coupling, anti-BCMA variants were then captured on this surface and recombinant human BCMA (in house material) passed over at 256, 64, 16, 4, 1 nM with a 0 nM injection (i.e. buffer alone) used to double reference the binding curves, the buffer used is the HBS-EP buffer. Regeneration of the capture surface was carried out using 50 mM NaOH. The data was fitted to the 1:1 model using the analysis software inherent to the ProteOn XPR36. The run was carried out at 25° C.

Assay [3] has as its target T1, human BCMA expressed on cells. Put plainly: FACS on H929 multiple myeloma cells, PE anti-mouse IgG. The procedure:
as §1

Assay [4] deals with T2, recombinant human BCMA, in house …. Put plainly: ProteOn SPR run 2, antibody captured on Protein A, 25C.
Assay [5] has as its target T3, recombinant cyno BCMA, in house material (cyno, UniProt A0A2K5UD97 4-52).
T3 construct: also called Cyno in house BCMA
The assay is described as above.

T3 sequence (A0A2K5UD97 entry or part of it): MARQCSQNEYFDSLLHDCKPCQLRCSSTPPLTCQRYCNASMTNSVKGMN

B1: murine S332126E04 (antibody, V domains shown)
VH: QVQLQQPGAELVKPGASVKLSCKASGYTFTNYWMHWVKQRPGQGLEWIGIIHPNSGSTNYNEKFKSKATLTVDKSSSTAYMQLSSLTSEDSAVYYCARGIYDYPFAYWGQGTLVTVSS
VL: DIVLTQSPASLAVSLGQRATISCRASESVSIHGTHLMHWYQQKPGQPPKLLIYAASNLESGVPARFSGSGSETDFTLNIHPVEEEDAATYFCQQSIEDPYTFGGGTKLEIKR
notes: Murine hybridoma antibody
As for B1, the binding result in assay [1] is reported as “binds”.

B2: S332121F02 chimeric antibody (antibody, human IgG1, kappa, V domains shown)
VH: EVQLQQSGPVLVKPGASVKMSCEASGYTFTDYYMNWVKQSHGKTLEWIGVINPYNGGTDYNQKFKGKATLTVDKSSSTAYMELNSLTSEDSAVYYCARSVYDYPFDYWGQGTLVTVSS
VL: DIVLTQSPASLAVSLGQRATISCRASESVSIHGTHLMHWYQQKPGQPPKLLIYAASNLESGVPARFSGSGSETDFTLNIHPVEEEDAATYFCQQSIEDPRTFGGGTKLEIKR
notes: Section 4.10 says that the samples are new chimeric constructs (human IgG1 kappa)
Broadly, the Kd is the constant that tells how readily two partners part at equilibrium. Take B2: the Kd in assay [2] was 0.0173 µM.

B3: murine S307118G03 (antibody, IgG2a, V domains shown)
VH: EVQLQQSGPELVKPGASVKISCKASGYTFTDYYMKWVKQSHGKSLEWIGEIYPNNGGITYNQKFKGKATLTVDKSSSTAYMELRSLTSEDSAVYYCANGYEFVYWGQGTLVTVSA
VL: DIQMTQTASSLSASLGDRVTISCSASQGISNYLNWYQQKPDGTVKLLIYYTSSLHSGVPSRFSGSGSGTDYSLTISNLEPEDIATYYCQQYSKLPWTFGGGTKLEIKR
notes: Murine hybridoma antibody; also called S307118G03 (murine parental mAb)
For the molecule B3, the binding result in assay [3] was “binds”.

B4: S307118G03 H5L1 (antibody, human IgG1, kappa, V domains shown)
VH: QVQLVQSGAEVKKPGSSVKVSCKASGYTFTDYYMKWVRQAPGQGLEWIGEIYPNNGGITYNQKFKGRATLTVDKSTSTAYMELSSLRSEDTAVYYCANGYEFDYWGQGTLVTVSS
VL: DIQMTQSPSSLSASVGDRVTITCSASQGISNYLNWYQQKPGKAPKLLIYYTSSLHSGVPSRFSGSGSGTDYTLTISSLQPEDFATYYCQQYSKLPWTFGQGTKLEIKR
notes: Humanised, human IgG1 kappa; also called S307118G03 humanised H5L1
Take B4: the results for the binding result in assay [4] and in assay [5] were “no binding (tested: up to 256 nM)” and “no binding”, respectively.

B5: S322110D07 chimeric antibody (printed S332110D07 in Table 12) (antibody, human IgG1, kappa, V domains shown)
VH: EVQLQQSGPELVKPGTSVKIPCKTSGYIFTDYSIDWVKQSHGKSLEWIGDIDPNYGDPIYNHKFKGKATLTVDRSSSTAYMELRSLTSEDTAVYFCARRATGTDWFAFWGQGTLVTVSS
VL: DIQMTQSPASLSVSVGETVTITCRASENIYNNLAWYQQKQGKSPQLLVYAATILADGVPSRFSGSGSGTQYSLKINSLQSGDFGTYYCQHFWGTPLTFGAGTKLELKR
notes: Section 4.10 says that the samples are new chimeric constructs (human IgG1 kappa); also called chimeric S322110D07
On to B5, for which, in assay [2], the Kd amounted to 0.0121 µM.

Values taken from patent publication US20230137032A1 (GlaxoSmithKline, published 2023).
